Source: patent US20240325529A1, “MEDICAMENT FOR TREATMENT AND/OR PREVENTION OF CANCER” (TORAY INDUSTRIES, INC., priority 2021, published 2024)
Residue numbers refer to the chain shown, from its start.

T1: CAPRIN-1 on cell membrane surfaces of human cancer cells (Homo sapiens, UniProt Q14444)
T1 construct: endogenous in cells; host or cells: human cancer cell lines (BT-474, HT-29, QG56, H1650, NCI-N87, HEC-1-A, 22Rv1, Panc10.5, Hep3B, SKOV3, Caki-2, U-87MG, T24, OE33, OCI-AML5, Ramos, TGBC 14TKB, HT-1080, G-361)
T1 sequence (Q14444 1-709): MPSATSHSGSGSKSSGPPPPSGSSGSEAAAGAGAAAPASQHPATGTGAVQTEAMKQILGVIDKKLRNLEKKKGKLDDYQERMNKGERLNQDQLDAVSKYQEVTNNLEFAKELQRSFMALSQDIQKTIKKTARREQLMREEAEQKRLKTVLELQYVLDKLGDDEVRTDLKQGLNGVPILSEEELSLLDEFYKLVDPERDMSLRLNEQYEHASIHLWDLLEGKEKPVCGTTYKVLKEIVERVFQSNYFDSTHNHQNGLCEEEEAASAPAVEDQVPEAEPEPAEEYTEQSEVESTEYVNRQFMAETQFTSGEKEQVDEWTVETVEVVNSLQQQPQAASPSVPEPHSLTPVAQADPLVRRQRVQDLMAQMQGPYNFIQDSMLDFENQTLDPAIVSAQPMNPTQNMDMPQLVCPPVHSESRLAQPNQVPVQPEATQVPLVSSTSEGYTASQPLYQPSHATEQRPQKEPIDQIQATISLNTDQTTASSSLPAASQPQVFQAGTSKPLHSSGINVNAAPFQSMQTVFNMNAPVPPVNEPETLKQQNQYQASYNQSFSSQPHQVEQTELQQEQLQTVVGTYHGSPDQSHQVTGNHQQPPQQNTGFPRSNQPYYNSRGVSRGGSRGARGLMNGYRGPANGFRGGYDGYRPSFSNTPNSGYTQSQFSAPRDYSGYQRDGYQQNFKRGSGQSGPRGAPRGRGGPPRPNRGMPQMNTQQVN

T2: human CAPRIN-1 protein on cell membrane surfaces of human cancer cells (human, UniProt Q14444 2-709)
T2 construct: whole, on cells; Endogenous protein on cancer cells, stained without permeation of the cell membrane
T2 sequence (looked up): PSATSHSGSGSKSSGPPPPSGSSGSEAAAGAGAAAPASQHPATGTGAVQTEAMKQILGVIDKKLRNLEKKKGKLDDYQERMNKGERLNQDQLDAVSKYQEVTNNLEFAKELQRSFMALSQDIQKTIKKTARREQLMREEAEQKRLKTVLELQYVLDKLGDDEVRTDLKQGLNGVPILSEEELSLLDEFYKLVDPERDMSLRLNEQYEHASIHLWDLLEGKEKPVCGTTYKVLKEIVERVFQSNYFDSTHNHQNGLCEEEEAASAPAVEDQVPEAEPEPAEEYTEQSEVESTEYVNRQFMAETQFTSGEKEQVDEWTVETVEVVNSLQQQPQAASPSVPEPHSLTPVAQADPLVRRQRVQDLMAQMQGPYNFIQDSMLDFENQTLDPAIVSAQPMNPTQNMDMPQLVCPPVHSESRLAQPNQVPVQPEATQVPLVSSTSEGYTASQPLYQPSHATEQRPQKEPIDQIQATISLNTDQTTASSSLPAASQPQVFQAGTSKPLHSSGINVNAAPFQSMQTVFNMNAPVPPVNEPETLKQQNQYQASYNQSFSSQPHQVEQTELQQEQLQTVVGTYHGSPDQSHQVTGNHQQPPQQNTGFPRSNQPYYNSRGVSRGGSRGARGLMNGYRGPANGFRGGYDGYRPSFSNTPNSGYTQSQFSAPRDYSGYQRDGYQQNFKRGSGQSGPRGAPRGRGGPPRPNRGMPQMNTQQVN

B1: (ab): monoclonal antibody against CAPRIN-1 described in WO2013/125630, heavy-chain variable region SEQ ID NO: 114, light-chain variable region SEQ ID NO: 115 (antibody, listed as Mus musculus, V domains shown)
VH: GPELVKPGASVKMSCKASGYTFTSYVMHWVKQKPGQGLEWIGYINPYNDGTKYNEKFKGKATLTSDKSSSTAYMELSSLTSEDSAVYYCARRYYYGSSGGYFDVWAQDHVRT
VL: DVQITQSPSYLAASPGETITINCRASKSISKYLAWYQEKPGKTNKLLIYSGSTLQSGIPSRFSGSGSGTDFTLTISSLEPEDFAMYYCQQHNEYPYTFGGGTKLEIKR
B2: anti-CAPRIN-1 antibody (af) (antibody, V domains shown)
VH: EVQLVESGGGLVQPGGSLRLSCAASGFSLSSHSLGWVRQAPGKGLEWIGDIRSGGSAYYANWAKGRFTISRDNSKNTLYLQMNSLRAEDTAVYYCTRTNGPSDLTNRLDLWGQGTLVTVSS
VL: QVLTQSPSSLSASVGDRVTINCQASQSLYNNENLAWFQQKPGKVPKRLIYGASTLASGVSSRFSGSGSGTEFTLTISSLQCEDFAIYYCLGEFSCGSADCFAFGGGTKVEIK
B3: anti-CAPRIN-1 antibody (ah) (antibody, V domains shown)
VH: B2 VH
VL: EQVLTQSPSSLSASVGDRVTINCQASQSLYNNENLAWFQQKPGKVPKRLIYGASTLASGVSSRFSGSGSGTEFTLTISNLQPEDFAIYYCLGEFSCGSADCFAFGGGTKVEIK
B4: anti-CAPRIN-1 antibody (ak) (antibody, V domains shown)
VH: B2 VH with Y94F
VL: B3 VL
B5: anti-CAPRIN-1 antibody (ai) (antibody, V domains shown)
VH: B2 VH with Y94F
VL: B3 VL with Q2I, I87T
B6: anti-CAPRIN-1 antibody (aj) (antibody, V domains shown)
VH: B2 VH
VL: B3 VL with Q2I, I87T
B7: anti-CAPRIN-1 antibody (b) (antibody, V domains shown)
VH: B2 VH with V2Q, Q3S
VL: B2 VL
B8: anti-CAPRIN-1 antibody (ag) (antibody, V domains shown)
VH: B2 VH with Y94F
VL: B2 VL
B9: anti-CAPRIN-1 antibody (e) (antibody, V domains shown)
VH: AVTLDESGGGLQTPGGALSLVCKASGFTFSGYDMLWVRQAPGKGLEWVAGIGSTGGGTDYGAAVKGRATISRDNGQSTVRLQLNNLRAEDTATYYCAKVAGGCNSGYCRDSPGSIDAWGHGTEVIVS
VL: AVTQQPASVSANPGETVKITCSGGGSRNYYGWYQQKSPGSVPVTVIYYDDQRPSNIPSRFSGALSGSTSTLTITGVQADDEAVYFCGSADSNTYEGSFGAGTTLTVL
B10: anti-CAPRIN-1 antibody (c) (antibody, V domains shown)
VH: AVTLDESGGGLQTPGGGLSLVCKASGFTFSSFDMGWVRQAPGKGLEFVAQINDAGSRTWYATAVKGRATISRDNGQTTVRLQLNNLRAEDTGTYYCTRGSGYVGAGAIDAWGHGTEVIVS
VL: AALTQPSSVSANPGETVKITCSGGSGYYGWYQQQKSPGSAPVTVIYQNDKRPSDIPSRFSGSGSGSTNTLTITGVQAEDEAVYFCGRYDSTDSGIFGAGTTLTVL
B11: anti-CAPRIN-1 antibody (d) (antibody, V domains shown)
VH: QSLEESGGDLVKPGASLTLTCTASGFSFSGSYYMSWVRQAPGKGLEWIAYIYIGDGVTAYANWAKGRFTISKASSTTVTLQMTSLTAADTATYFCARGNKLWGPGTLVTVSS
VL: DVVMTQTPASVEAAVGGTVTIKCQASQSISSYLAWYQQKPGQPPKRLIYDASNLDSGVPSRFKGSGSGTDFTITISDLECADAATYYCQCTAVSSATIYGNAFGGGTEVVVK
B12: anti-CAPRIN-1 antibody (i) (antibody, V domains shown)
VH: GAELVRSGASVKMSCKASGYSFTDYNMYWVKQTPGQGLEWIGYIYPGNGGTNYNQKFKGKATLTADTSSSTAYMQISSLTSEDSAVYFCARDYDDGGYAMDYWGQGTTVTVSS
VL: DIQMTQSPASLSASVGETVTITCRASGNIHNYLTWYQQKQGKSPQLLVYNAKTLADGVPSRFSGSGSGTQYSLKINRLQPEDFGSYYCQHFWNIPWTFGGGTKLNSR
B13: anti-CAPRIN-1 antibody (a) (antibody, V domains shown)
VH: AVTLDESGGGLQMSRGGLSLVCKASGFDFSSYQMNWIRQAPGKGLEFVAAINKFGNSTGHGAAVKGRVTISRDNGQSTVRLQLNNLRAEDTAIYFCTKHAYGYCGSGTWCAAGEIDAWGHGTEVIVSS
VL: QAASTQPSSVSANPGETVEITCSGGGSYSYGWFQQKSPGSAPVTVIYYNNKRPSDIPSRFSGSKSGSTGTLTITGVQADDEAVYYCGSGDSTDTAVFGAGTTLTVLG
B14: anti-CAPRIN-1 antibody (o) (antibody, V domains shown)
VH: EVQLHQFGAELVKPGASVKISCKASGYTFTDYNMDWVKQSHGKSLEWIGDINPNYDSTSYNQKFKGKATLTVDKSSSTAYMELRSLTSEDTAVYYCARSRSYDYEGFAYWGQGTLVTVSA
VL: DIQMTQSPASLSASVGETVTITCRASGNIHNYLAWYQQKQGKSPQLLVYNAKTLADGVPSRFSGSGSGTQYSLKINSLQPEDFGSYYCQHFWSTLTFGAGTKLELKR
B15: anti-CAPRIN-1 antibody (j) (antibody, V domains shown)
VH: DAELVKPGASVKISCKASGYTFTDHSIHWVQQKPEQGLEWIGYISPGNGNIKYNEKFKGKATLTADKSSSTAYMQLNSLTSEDSAVYFCKRSLGRGGPYYFDYWGQGTTVTVSS
VL: DIVLTQAAPSLPVTPGESVSISCRSSKSLLHSNGNTYLYWFLQRPGQSPQLLIYRMSNLASGVPDRFSGSGSGTAFTLRISRVEAEDVGVYYCMQHREYPVTFGSGPN

Molecular target: T1, CAPRIN-1 on cell membrane surfaces of human cancer cells
Experiment: Flow cytometry reactivity with cell membrane surfaces of human cancer cells expressing CAPRIN-1
Assay type: binding
Settings: human cancer cells: BT-474, HT-29, QG56, H1650, NCI-N87, HEC-1-A, 22Rv1, Panc10.5, Hep3B, SKOV3, Caki-2, U-87MG, T24, OE33, OCI-AML5, Ramos, TGBC 14TKB, HT-1080, G-361
Excerpt: Reactivity of each monoclonal antibody with human cancer cells confirmed to express CAPRIN-1 protein on cell membrane surfaces was further confirmed by flow cytometry.
The reactivity of the anti-CAPRIN-1 antibody with cancer cells without permeation treatment of cell membranes was examined by flow cytometry to confirm that a portion of CAPRIN-1 was expressed on cell membrane surfaces of cancer cells as shown by Examples given below.

| reactivity with cell membrane surfaces of cancer cells (fluorescence intensity versus negative control antibody) | Molecule |
| --- | --- |
| reacted strongly | B1 |

Molecular target: T2, human CAPRIN-1 protein on cell membrane …
Experiment: flow cytometry on cancer cells expressing CAPRIN-1
Settings: not given

| binding result | Molecule |
| --- | --- |
| binds | B2 |
| binds | B3 |
| binds | B4 |
| binds | B5 |
| binds | B6 |
| binds | B7 |
| binds | B8 |
| binds | B9 |
| binds | B10 |
| binds | B11 |
| binds | B12 |
| binds | B13 |
| binds | B14 |
| binds | B15 |

System: Basal-like subtype of breast cancer (BLBC)
Experiment: not given
Settings: added to docetaxel after epirubicin and cyclophosphamide (EC treatment); cited from earlier work

| Molecule | effectiveness of administering carboplatin |
| --- | --- |
| N.N.O=C([O-])C1(C(=O)[O-])CCC1.[Pt+2] [carboplatin] | not effective |
